# Measurements reported in the RNAGym collection of RNA variant scans (doi:10.7554/elife.80360).
# B1: Hairpin Ribozyme (parent)
# chain: GUCCUCUUUCACGUGCGCGUGAAAGAGAGAAGUGAACCAGAGAAACACACGUUGUGGUAUAUUACCUGGUA
# Variants of: B1
# Assay: self-cleavage, relative activity (ratio to wild type); higher = more cleavage; co-transcriptional
row,Variant,self-cleavage
1,C3G G57A,0.102
2,C3G G57C,0.0572
3,C3G G57U,0.0635
4,C3U C18A,0.641
5,C3U C18G,0.531
6,C3U C66U,0.239
7,C3A U60C,1.07
8,C3U A44U,0.0496
9,C3G A64U,0.134
10,C4A A23U,0.251
11,C3U A45G,0.101
12,C3U A45C,0.123
13,C3G U33A,0.138
14,C3U C38U,0.354
15,C4A A30G,0.105
16,C4A A30U,0.228
17,C3U A43G,0.138
18,C3G U20G,0.28
19,C3G U52C,0.359
20,C3G A71U,0.148
21,C3G A71C,0.58
22,C3U A71U,0.429
23,C3U A71C,0.962
24,C3U U63G,0.12

row,Variant,self-cleavage
1,C3U U63C,0.264
2,C3G U62C,0.0668
3,C3G A41U,0.527
4,C3G A41C,0.341
5,C3U C50A,0.174
6,C3G A39C,0.202
7,C3U A23G,0.325
8,C3U A23U,0.535
9,C3G U8A,0.377
10,C4A A35G,0.33
11,C4A A35U,0.188
12,C3U U62A,0.158
13,C3U A36G,0.505
14,C3G G42C,0.103
15,C3U A30C,0.161
16,C3G A47C,0.0701
17,C3A U62C,0.2
18,C3U U5A,0.429
19,C3G U9C,0.357
20,C3U G51C,0.402
21,C3U G51U,0.538
22,C3U A59C,0.143
23,C3G A26G,0.338
24,C3U G57A,0.0631

row,Variant,self-cleavage
1,C3U G57U,0.204
2,C3U U8A,0.361
3,C3G A45G,0.118
4,C3G A45C,0.0981
5,C4A A31C,0.131
6,C3U G69U,0.106
7,C3U G21A,0.483
8,C3G U63G,0.18
9,C3G U63A,0.108
10,C3U G15U,0.474
11,C3U G15A,0.416
12,C3G C38A,0.119
13,C3U U58G,0.404
14,C3G C6G,0.214
15,C3G C6U,0.295
16,C3G C48U,0.0425
17,C3G C4U,0.277
18,C3G C46U,0.101
19,C3G C46A,0.0768
20,C3G G56C,0.112
21,C3G G56A,0.115
22,C3G G56U,0.157
23,C3U C37U,0.29
24,C3U G13A,0.522

row,Variant,self-cleavage
1,C3U G13C,0.324
2,C3G A30G,0.1
3,C3U G19U,0.502
4,C3U C10G,0.457
5,C3U U70G,0.371
6,C3G G13C,0.321
7,C3G G13A,0.255
8,C3U,0.526
9,C3G,0.296
10,C3U G54C,0.211
11,C3U C4G,0.235
12,C3G C66A,0.101
13,C3G U55G,0.0936
14,C3G U55C,0.118
15,C3U C16G,0.23
16,C3G U58A,0.0819
17,C3U C48A,0.167
18,C3G U53G,0.235
19,C3G U53C,0.102
20,C3U A41U,0.917
21,C3U G27U,0.15
22,C4A A24U,0.196
23,C3G U70C,0.235
24,C3G C16G,0.34

row,Variant,self-cleavage
1,C3U U33A,0.147
2,C3U U33G,0.126
3,C3U U33C,0.167
4,C3U A28C,0.452
5,C3G A61C,0.168
6,C3A U67A,0.132
7,C3A U67G,0.199
8,C3G C18A,0.34
9,C3U U14G,0.442
10,C3U A24C,0.477
11,C3U C65A,0.611
12,C3U C65U,0.334
13,C3G G69A,0.108
14,C3G U5G,0.163
15,C3G U5A,0.15
16,C3G U14A,0.431
17,C3G G68A,0.085
18,C3G C65G,0.0169
19,C3G A36C,0.165
20,C3G A59G,0.0582
21,C3G A59U,0.164
22,C3U G34A,0.747
23,C3U C46A,0.121
24,C3U C46G,0.179

row,Variant,self-cleavage
1,C3A U55A,0.172
2,C3G G15C,0.493
3,C3U G68U,0.19
4,C3U C6U,0.347
5,C3U C6A,0.372
6,C3U U67G,0.164
7,C3G U67A,0.0949
8,C3U A47G,0.275
9,C3U A47U,0.208
10,C3U A47C,0.192
11,C3U U7G,0.464
12,C3U U7C,0.553
13,C3G U60A,0.167
14,C3G U7C,0.372
15,C3G G54C,0.126
16,C3G G54U,0.175
17,C3G A44U,0.114
18,C3U A26G,0.509
19,C3U U20G,0.561
20,C3U A11U,0.32
21,C3G G51C,0.238
22,C3G G51A,0.369
23,C3G A28U,0.647
24,C4A A11U,0.258

row,Variant,self-cleavage
1,C4A A11G,0.158
2,C3U U55G,0.208
3,C3U U55A,0.0909
4,C3U A35U,0.339
5,C3U A35C,0.802
6,C3G G25C,0.0885
7,C3G C37U,0.189
8,C3G C37G,0.0959
9,C3U G25C,0.0917
10,C3G C10A,0.18
11,C3U U53A,0.495
12,C3G A35U,0.202
13,C3G A35G,0.291
14,C3G G29U,0.0672
15,C3G G29C,0.0773
16,C3U G29A,0.173
17,C3U A31U,0.102
18,C3U G32C,0.133
19,C3G C12G,0.199
20,C3G G17A,0.388
21,C3U G17C,0.305
22,C3U G17A,0.682
23,C3G A22G,0.264
